System: MS2 coat protein
Test: apparent KD of MS2 coat protein; designed switch direction (-1 OFF switch, 1 ON switch): 1; higher = weaker reporter binding
In short: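 RNA switches sharing common flanks were transcribed by stalled E. coli RNA polymerase on Illumina chips. A doubling series of SNAP-549-labelled MS2 coat protein, from 0.7 or 1.5 nM to 3 µM, was applied in Tris-HCl pH 7.5 buffer with KCl, MgCl2, BSA, DTT, tRNA and Tween-20. Each step lasted 0.8–1.5 h at the bottom of the series and 10–20 min at the top. Normalised cluster fluorescence was curve-fitted, giving apparent KD as the per-design median over clusters.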

[1] = Eterna round: R95, input ligand: FMN 200 uM
[2] = Eterna round: R95, input ligand: microRNA oligo, concentration not stated
[3] = Eterna round: R95, input ligand: none
[4] = input ligand: microRNA oligo, concentration not stated

Sequence	apparent KD of MS2 coat protein [1] [µM]	apparent KD of MS2 coat protein [2] [µM]	apparent KD of MS2 coat protein [3] [µM]	apparent KD of MS2 coat protein (input ligand: FMN 200 uM) [µM]	apparent KD of MS2 coat protein [4] [µM]	apparent KD of MS2 coat protein (input ligand: none) [µM]
UAUAAACAUGAGGAUCACCCAUGUAAUAAUAUGGGAGGAUAUCAGAAUGUAUUUAUUUAAUGAGAAGGCCUAAUAU [Mat - Same State 1 - Mod of Eli - D68] (puzzle: Same State 1)	0.0464	0.532	0.645			
UAUAUUAUGGUAGGAUAUGUAGGAUAUGGCGAGAGCUAAGCUUGGAAGUCACUUCAGCCAGAAGGACAGAAGGACCAUAAUAUU [pwkr ssNG2 2FMN + F9.9] (Eterna round: R96, puzzle: Same State NG 2)				0.0166	0.127	0.216
UAUCGUUUGAUAGGAUAUCGCUAUACAUGAGGAUCACCCAUGUUUACCACGCUGGUUUUUCAUACCGAGAAGGAUUCUGAUGAG [salish99_SSNG02_r04_005] (Eterna round: R96, puzzle: Same State NG 2)				0.0363	0.0332	0.0422
UAUGAAUAGCAAGGAUAUUGAUAACAUGAGGAUCACCCAUGUAAUUGAUUGAGAAAGAUUAGUUACAAGAAGGUGCAAUUGAUU [JR_SSNG2_Sub034] (Eterna round: R96, puzzle: Same State NG 2)				0.282	0.441	0.311
UAUGACUUACAAGGAUAUUAAUGACAUGAGGAUCACCCAUGUGGCUGUGUAUGUUAGAUAAGCAUUAAGAAGGUGUGCGAGUCU [JR_SSNG2_Sub097] (Eterna round: R96, puzzle: Same State NG 2)				0.0307	0.0232	0.0254
UAUUAGAUCCGAGGAUAUCCUUAUUACAAACAUGAGGAUCACCCAUGUAAAGGGAAUGAGUUGUAGGAGAAGGCGGAUUUAGUU [JR_SSNG2_Sub057] (Eterna round: R96, puzzle: Same State NG 2)				0.0335	0.033	0.051
UAUUUAAUCAUAGGAUAUAGUGUGAAAUUUGGACUAGAAGGAUGUAACAUGAGGAUCACCCAUGUGGUAAGUGGGAUACAUUCC [JR_SSNG1_Sub098] (Eterna round: R96, puzzle: Same State NG 1)				0.11	0.075	0.117
UCAAGCGUUUGGCUCGUCUUAUGUUUGGUACAUGAGGAUCACCCAUGUUAGGGACGAUCCAGUUAGAUGGAAUUUUG [JR_SHM208A_Sub036] (puzzle: Sensor for hsa-mir-208a)	0.0365	0.637	0.0456			
UCGGGCGUACUUGCUGACAUGAGGAUCACCCAUGUAAAUGGGAAGGAUAUGGUACCGUUUCGGUACCAGAAGGUCCUGGGUGCU [salish99_SSNG3_r04_309] (Eterna round: R96, puzzle: Same State NG 3)				2.27	0.674	3.84
UCGGGCGUACUUGCUGACAUGAGGAUCACCCAUGUAAAUGGGAAGGAUAUGGUUCCGUUUCGGUUCCAGAAGGUCCUGGGUGCU [salish99_SSNG3_r04_311] (Eterna round: R96, puzzle: Same State NG 3)				0.886	1.14	1.18
UCGGGCGUACUUGCUGACAUGAGGAUCACCCAUGUCCUUGGGAAGGAUAUGGUUCCGUUUCGGUUCCAGAAGGUCCUGGCUGCU [salish99_SSNG3_r04_317] (Eterna round: R96, puzzle: Same State NG 3)				0.0301	0.0426	0.0782
UCUGCUGCCCAAGGAUAUCAGCGUGGUAUCCACAUGAGGAUCACCCAUGUAGGUCAGCACUACCCUGAGAAGGUGGGAAAAUAA [Eternabot solution 2] (Eterna round: R96, puzzle: Same State NG 2)				0.0144	0.0106	0.0151
UCUUGGUUUUUGCUCGUUUUUUGUGUUGAACAUGAGGAUCACCCAUGUAUUGUACGGUCCAAUUUAAUAAUGGUCCG [JMF 23] (puzzle: Sensor for hsa-mir-208a)	0.0263	0.0143	0.0269			
UCUUGGUUUUUGCUCGUUUUUUGUGUUGAACAUGAGGAUCACCCAUGUAUUGUACGGUCCAAUUUGGUGGUAGUCCG [JMF 68] (puzzle: Sensor for hsa-mir-208a)	0.0404	0.0296	0.0469			
UCUUGGUUUUUGCUCGUUUUUUGUGUUGAACAUGAGGAUCACCCAUGUAUUGUACGGUCCAGUUUAAUAGUGGUCCG [JMF 31] (puzzle: Sensor for hsa-mir-208a)	0.0258	0.0134	0.0238			
UGAAAACAUGAGGAUCACCCAUGUAUUAUUAUGGGAGGAUAUGGGAAUUAAUUAAUUAAACCAGAAGGCCUAAAGU [Mat - Same State 1 - D89] (puzzle: Same State 1)	0.0247	0.0572	0.0526			
UGAAUAAUGAUAGGAUAUACAUGAGGAAUCCUCGUAGAAGGAUCAUGACAUGAGGAUCACCCAUGUAGCGCUCGAAAGAGCGCA [Mat - Same State NG 1 - JL mod - D52] (Eterna round: R96, puzzle: Same State NG 1)				0.186	0.0549	0.232
UGAAUAGUGAUAGGAUAUACAUGAGGAAUCCUCGUAGAAGGAUCACGACAUGAGGAUCACCCAUGUAGCCGUCCGUAGACGGCA [Mat - Same State NG 1 - JL mod - D59] (Eterna round: R96, puzzle: Same State NG 1)				0.353	0.0664	0.231
UGAAUAGUUACAGGAUAUCAUGCGAAAAUUGCGUGAGAAGGGUGGGUGUUGUGCGCUAAGUGCCACAUGAGGAUCACCCAUGUU [SameState NG1 #38] (Eterna round: R96, puzzle: Same State NG 1)				0.0445	0.0071	0.0256
UGAAUAGUUACAGGAUAUGAGCCGUAAAUUGGGUCAGAAGGGUGGGUGUUUUGCGCUGUGUGCUACAUGAGGAUCACCCAUGUU [SameState NG1 #33] (Eterna round: R96, puzzle: Same State NG 1)				0.52	0.172	0.24
UGAGGUGUAGCAGGAUAUGCCGUCAGUCACCCGGCAGAAGGGCUGAAAGCAUGCUCGCACAUGAGGAUCACCCAUGUCACAGUG [Eternabot solution 17] (Eterna round: R96, puzzle: Same State NG 1)				0.0489	0.0377	0.044
UGCCUGAGUCGAGGAUAUUAUGGAUCAAUUAAUACAUGAGGAUCACCCAUGUAAUUAAUUUAACAUGAGAAGGUGACUCAGGCA [SSNG2/10-B2] (Eterna round: R96, puzzle: Same State NG 2)				0.0149	0.0122	0.00999
UGCCUGAGUCGAGGAUAUUAUGGAUCCUCUAAUACAUGAGGAUCACCCAUGUAAUUAAUUAUACAUGAGAAGGCGACUCAGGCU [SSNG2/12-A1] (Eterna round: R96, puzzle: Same State NG 2)				0.304	0.0223	0.0465
UGCCUGAGUCGAGGAUAUUAUGGAUCCUUUAAUACAUGAGGAUCACCCAUGUAAUUAAUUAUACAUGAGAAGGCGACUCAGGCA [SSNG2/11-A2] (Eterna round: R96, puzzle: Same State NG 2)				0.0174	0.097	0.0901
UGGAUCUAGGCUUGCCUGGGUCCAUGCUGACAUGAGGAUCACCCAUGUGCAUUCUAUAAGCUUUUUGCUUGUCAGCU (puzzle: Sensor for hsa-mir-208a)	0.373	0.091	0.441			
UGGCUCAGACGAGGAUAUAUGUGAUCACAUGAGGAUCACCCAUGUCUCGAGCUUCGGCUCGAGACAUAGAAGGCGUCUGAGCCA [SSNG2/3-A2] (Eterna round: R96, puzzle: Same State NG 2)				0.118	0.0663	0.0185
UGGCUCAGAGCAGGAUAUAUGUCUCGAGCUUCGGCUCGAGACAUGAGGAUCACCCAUGUAAUAACAUAGAAGGGCUCUGAGCCU [SSNG2/1-B3] (Eterna round: R96, puzzle: Same State NG 2)				0.0158	0.042	0.0533
